Measured values taken from FireProtDB.

B1: Glutamate dehydrogenase, P96110 (parent)
chain: MPEKSLYEMAVEQFNRAASLMDLESDLAEVLRRPKRVLIVEFPVRMDDGHVEVFTGYRVQHNVARGPAKGGIRYHPDVTLDEVKALAFWMTWKTAVMNLPFGGGKGGVRVDPKKLSRNELERLSRRFFSEIQVIIGPYNDIPAPDVNTNADVMAWYMDTYSMNVGHTVLGIVTGKPVELGGSKGREEATGRGVKVCAGLAMDVLGIDPKKATVAVQGFGNVGQFAALLISQELGSKVVAVSDSRGGIYNPEGFDVEELIRYKKEHGTVVTYPKGERITNEELLELDVDILVPAALEGAIHAGNAERIKAKAVVEGANGPTTPEADEILSRRGILVVPDILANAGGVTVSYFEWVQDLQSFFWDLDQVRNALEKMMKGAFNDVMKVKEKYNVDMRTAAYILAIDRVAYATKKRGIYP
B2: Tissue-type plasminogen activator, P00750 (parent)
chain: MDAMKRGLCCVLLLCGAVFVSPSQEIHARFRRGARSYQVICRDEKTQMIYQQHQSWLRPVLRSNRVEYCWCNSGRAQCHSVPVKSCSEPRCFNGGTCQQALYFSDFVCQCPEGFAGKCCEIDTRATCYEDQGISYRGTWSTAESGAECTNWNSSALAQKPYSGRRPDAIRLGLGNHNYCRNPDRDSKPWCYVFKAGKYSSEFCSTPACSEGNSDCYFGNGSAYRGTHSLTESGASCLPWNSMILIGKVYTAQNPSAQALGLGKHNYCRNPDGDAKPWCHVLKNRRLTWEYCDVPSCSTCGLRQYSQPQFRIKGGLFADIASHPWQAAIFAKHRRSPGERFLCGGILISSCWILSAAHCFQERFPPHHLTVILGRTYRVVPGEEEQKFEVEKYIVHKEFDDDTYDNDIALLQLKSDSSRCAQESSVVRTVCLPPADLQLPDWTECELSGYGKHEALSPFYSERLKEAHVRLYPSSRCTSQHLLNRTVTDNMLCAGDTRSGGPQANLHDACQGDSGGPLVCLNDGRMTLVGIISWGLGCGQKDVPGVYTKVTNYLDWIRDNMRP
B3: Ribonuclease HI, P0A7Y4 (parent)
chain: MLKQVEIFTDGSCLGNPGPGGYGAILRYRGREKTFSAGYTRTTNNRMELMAAIVALEALKEHCEVILSTDSQYVRQGITQWIHNWKKRGWKTADKKPVKNVDLWQRLDAALGQHQIKWEWVKGHAGHPENERCDELARAAAMNPTLEDTGYQVEV

Variants of: B1
Conditions: Thermotoga maritima (strain ATCC 43589 / DSM 3109 / JCM 10099 / NBRC 100826 / MSB8); pH 7.4; Thermal; DSC; Sodium phosphate 20 mM; reversible: no; structure 1B26; whole UniProt chain shown

Variant | Tm
S129R T159E N118R S161E | 88.3 °C
T159E | 83.1 °C
S129R T159E S161E | 88 °C
S129R T159E N118R | 89.6 °C
S129R | 87 °C

Variants of: B2
Conditions: Homo sapiens; pH 4.5; Thermal; CD; Unknown; structure 1PK2; whole UniProt chain shown

Variant | unfolding free energy
H264Y R268G | 3.4 kcal/mol
H264Y | 2.9 kcal/mol

Same assay, conditions: Homo sapiens; pH 7.4; Thermal; DSC; sodium Phosphate 10 mM; structure 1PML; whole UniProt chain shown

Variant | Tm | change of melting temperature, mutant - wild type (higher = more stable) | unfolding enthalpy (calorimetric)
W277Y | 63.3 °C | -12.3 °C | 45 kcal/mol
W277H | 56.6 °C | -19 °C | 56 kcal/mol
W277F | 58.5 °C | -17.1 °C | 40 kcal/mol

Variants of: B3
Conditions: Escherichia coli (strain K12); pH 3; 50.1 °C; Thermal; CD; glycine-HCl 10 mM; NaCl 0.1 M; reversible: yes; structure 2RN2; whole UniProt chain shown

Variant | ddG of mutation (higher = less stable)
Q76L | -0.24 kcal/mol
A24V | -0.73 kcal/mol
H62P T40A K122R | -0.52 kcal/mol
E119V K60R | 0.06 kcal/mol
H62D | -0.67 kcal/mol

Same assay, conditions: Escherichia coli (strain K12); pH 3; Thermal; CD; glycine-HCl 10 mM; NaCl 0.1 M; reversible: yes; structure 2RN2; whole UniProt chain shown

Variant | Tm | change of melting temperature, mutant - wild type (higher = more stable) | unfolding enthalpy (van 't Hoff)
Q76L | 50.9 °C | 0.8 °C | 110 kcal/mol
A24V | 52.5 °C | 2.4 °C | 109 kcal/mol
H62P T40A K122R | 51.8 °C | 1.7 °C | 109 kcal/mol
Q80L | 51.1 °C | 1 °C | 114 kcal/mol
E119V K60R | 49.9 °C | -0.2 °C | 109 kcal/mol
H62D | 52.3 °C | 2.2 °C | 118 kcal/mol

Same assay, conditions: Escherichia coli (strain K12); pH 5.5; Thermal; CD; Sodium acetate 20 mM; NaCl 0.1 M; reversible: yes; structure 2RN2; whole UniProt chain shown

Variant | Tm | change of melting temperature, mutant - wild type (higher = more stable) | unfolding enthalpy (van 't Hoff)
Q76L | 53.8 °C | 1.1 °C | 81.2 kcal/mol
A24V | 55.9 °C | 3.2 °C | 101 kcal/mol
H62P T40A K122R | 55.8 °C | 3.1 °C | 96.9 kcal/mol
Q80L | 53.5 °C | 0.8 °C | 94.6 kcal/mol
E119V K60R | 55 °C | 2.3 °C | 98.6 kcal/mol
H62D | 52.1 °C | -0.6 °C | 97.8 kcal/mol

Same assay, conditions: Escherichia coli (strain K12); pH 5.5; 52.7 °C; Thermal; CD; Sodium acetate 20 mM; NaCl 0.1 M; reversible: yes; structure 2RN2; whole UniProt chain shown

Variant | ddG of mutation (higher = less stable)
E119V K60R | -0.63 kcal/mol
